{"source": "paper PMC4859759", "origin": "cited, not measured here", "target": "VEGFR2 IgG domains 3-5 (Homo sapiens) (UniProt P35968)", "sequence (P35968 224-548)": "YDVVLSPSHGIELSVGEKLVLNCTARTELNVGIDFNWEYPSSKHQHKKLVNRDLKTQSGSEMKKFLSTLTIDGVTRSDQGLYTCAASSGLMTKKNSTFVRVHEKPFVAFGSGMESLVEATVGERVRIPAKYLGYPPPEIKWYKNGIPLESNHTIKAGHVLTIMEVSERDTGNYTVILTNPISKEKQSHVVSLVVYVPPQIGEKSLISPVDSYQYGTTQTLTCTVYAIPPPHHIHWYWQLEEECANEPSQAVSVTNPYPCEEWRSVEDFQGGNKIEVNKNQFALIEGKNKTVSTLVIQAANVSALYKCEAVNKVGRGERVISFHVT"}
{"substance": "endorepellin (perlecan) LG1/2 (from UniProt P98160)", "values": [{"measurement": "Kd", "result": 2.8, "unit": "nM"}]}
